Reference: patent US20240010750A1 (Bayer, published 2024)
Where a chain is given by its changes, count along the chain named. Like-named read-outs stand apart in the source and are kept apart here.

B1: TPP-14318 hIgG1 (antibody, V domains shown)
VH: EVQLLESGGGLVQPGGSLRLSCAASGFTFDDYAMSWVRQAPGKGLEWVSAIGTGGGTYYADSVKGRFTISRDNSKNTLYLQMNSLRAEDTAVYYCAREYYDSSGYYHLEYWGQGTLVTVSS
VL: QSVLTQPPSASGTPGQRVTISCTGSSSNIGATYDVHWYQQLPGTAPKLLIYSNNQRPSGVPDRFSGSKSGTSASLAISGLRSEDEADYYCAAWDWSLSGWVFGGGTKLTVLG
B2: TPP-14313 hIgG1 (antibody, V domains shown)
VH: B1 VH with E109V
VL: QSVLTQPPSASGTPGQRVTISCTGSSSNIGATYDVHWYQQLPGTAPKLLIYSNNQRPSGVPDRFSGSKSGTSASLAISGLRSEDEADYYCAAWDWSLSGWVFGGGTKLTVL
notes: Human IgG1 lambda
B3: TPP-17048 hIgG1 (antibody, V domains shown)
VH: B1 VH with D30S, G56S, Y99G, E109D
VL: B1 VL
notes: Germline variant of TPP-14308
B4: TPP-14323 hIgG1 (antibody, V domains shown)
VH: B1 VH with E109T
VL: B1 VL
B5: TPP-17045 hIgG1 (antibody, V domains shown)
VH: B1 VH with R97K, Y99G, E109D
VL: B1 VL
notes: Germline variant of TPP-14308

Columns and labels:
human alpha2-Antiplasmin [1] = biological target: T1, human alpha2-Antiplasmin (human, UniProt P08697 40-491); assay: cell-based or functional assay
T1 sequence: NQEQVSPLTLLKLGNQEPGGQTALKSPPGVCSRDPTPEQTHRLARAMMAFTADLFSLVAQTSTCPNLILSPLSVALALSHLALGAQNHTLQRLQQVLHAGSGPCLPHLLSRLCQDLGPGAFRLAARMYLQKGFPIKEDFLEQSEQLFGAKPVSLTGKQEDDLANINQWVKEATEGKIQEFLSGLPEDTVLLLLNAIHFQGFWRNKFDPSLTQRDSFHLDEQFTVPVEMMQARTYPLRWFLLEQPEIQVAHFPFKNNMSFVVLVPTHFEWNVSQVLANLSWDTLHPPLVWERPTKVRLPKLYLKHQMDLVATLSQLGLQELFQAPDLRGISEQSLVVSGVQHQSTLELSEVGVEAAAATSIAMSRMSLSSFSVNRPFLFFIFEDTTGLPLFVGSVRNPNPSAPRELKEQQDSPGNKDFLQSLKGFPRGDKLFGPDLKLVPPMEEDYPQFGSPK

human alpha2-Antiplasmin [2] = biological target: T1, human alpha2-Antiplasmin; assay: cell-based or functional assay; remark: listed apart in the source
human Plasmin = human Plasmin (human, UniProt P00747 97-580; P00747 581-810, limits assumed); assay: cell-based or functional assay
Chain of human Plasmin (P00747 97-580 limits assumed, chain 1 of 2): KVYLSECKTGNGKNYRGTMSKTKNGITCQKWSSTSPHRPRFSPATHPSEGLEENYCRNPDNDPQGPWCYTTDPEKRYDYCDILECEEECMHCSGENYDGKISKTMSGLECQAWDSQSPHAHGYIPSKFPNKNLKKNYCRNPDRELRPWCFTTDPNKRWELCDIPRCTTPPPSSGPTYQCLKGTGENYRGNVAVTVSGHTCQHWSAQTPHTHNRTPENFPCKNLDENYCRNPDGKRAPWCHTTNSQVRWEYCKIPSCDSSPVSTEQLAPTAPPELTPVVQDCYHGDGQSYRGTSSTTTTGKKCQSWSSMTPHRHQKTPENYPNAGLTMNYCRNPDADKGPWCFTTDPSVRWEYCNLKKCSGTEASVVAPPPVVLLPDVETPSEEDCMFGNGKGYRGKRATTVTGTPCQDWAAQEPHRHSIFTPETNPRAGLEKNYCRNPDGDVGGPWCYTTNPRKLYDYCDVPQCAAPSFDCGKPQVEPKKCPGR
Chain of human Plasmin (P00747 581-810 limits assumed, chain 2 of 2): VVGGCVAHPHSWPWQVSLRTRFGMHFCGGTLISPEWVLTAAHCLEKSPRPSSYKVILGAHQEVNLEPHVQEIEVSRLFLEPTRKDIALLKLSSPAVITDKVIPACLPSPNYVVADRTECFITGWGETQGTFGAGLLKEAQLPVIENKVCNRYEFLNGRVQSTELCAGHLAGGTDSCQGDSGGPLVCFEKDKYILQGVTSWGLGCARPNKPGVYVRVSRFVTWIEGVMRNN

human alpha2-Antiplasmin [3] = biological target: T1, human alpha2-Antiplasmin; assay: ELISA, coated antigen, 1st exp.
Procedure: (§1) A standard ELISA format was used for analyzing the binding affinity of Fabs of this invention to human and rabbit alpha-2-Antiplasmin, respectively. Antigens were coated to black 384 well Maxisorp microtiter plates (Nunc; catalogue number 460518), diluted to a concentration of 1 μg/ml in 1× Coating Buffer (Candor Bioscience; catalogue number 121125). Plates were incubated overnight at 4° C. After overnight incubation, plates were washed 2× with 50 μl/well using PBS+0.05% Tween 20. Following this, 50 μl/well of blocking buffer (Smart Block; Candor Bioscience; catalogue number 113500) was added and the plates were incubated for 1 hour at room temperature. Afterwards, plates were washed for 3× using […] PBS+0.05% Tween 20 buffer. Fabs of this invention were added at different concentrations in a final volume of 30 μl/well. Plates were incubated for 1 hour at room temperature. Following this incubation step, plates were washed for 3× using 50 μl/well of a PBS+0.05% Tween 20 buffer. For the detection of bound Fabs and full-length antibodies, the anti-Human Lambda Light Chains (Bound and Free)—Peroxidase antibody (Sigma; catalogue number A5175) was diluted by the factor of 1:10.000 in 10% Blocking Buffer. 30 μl/well of this diluted detection antibody was added and plates are incubated for 1 hour at room temperature. Following this incubation step, plates were washed for 3× using 50 μl/well of a PBS+0.05% Tween 20 buffer. As substrate, a mixture of 30 μl/well of 1:1000 diluted Amplex red (Invitrogen; catalogue number 12222; stock solution 10 mM in DMSO) and 1:10.000 of Hydrogen peroxide (Merck; catalogue number 107209; 30% stock solution) was added and the plates incubated for minutes in the dark.
(§2) For measurement, the Infinite f500 reader (Tecan) was used. Measurement mode: Fluorescence; Top reading; Ex 535 nm; Em 590 nm.
(§3) According to the methods described in Example 3 and Example 4, antibodies TPP-14323, TPP-14318, TPP-14314, TPP-14313, TPP-14308, TPP-14305, TPP-14303, TPP-14298, and TPP-14293 were tested for their ability to bind to and to block the activity of human alpha2-Antiplasmin in a dose-dependent manner. For each antibody, one dose response curve from two to three independent experiments performed in quadruplicate is shown as example in FIG. 7.1 to FIG. 7.18. (see Table 3.3)

human alpha2-Antiplasmin [4] = biological target: T1, human alpha2-Antiplasmin; assay: ELISA, coated antigen, 3rd exp.
Procedure: as §1, §2, §3

human alpha2-Antiplasmin [5] = biological target: T1, human alpha2-Antiplasmin; assay: ELISA, coated antigen, 2nd exp.
Procedure: as §1, §2, §3

human alpha2-Antiplasmin [6] = biological target: T1, human alpha2-Antiplasmin; assay: cell-based or functional assay; remark: listed apart in the source
human alpha2-Antiplasmin [7] = biological target: T1, human alpha2-Antiplasmin; assay: ELISA (Example 3), human alpha2-Antiplasmin coated, RFU
Procedure: as §1, with “As substrate, a mixture of 30 μl/well of 1:1000 diluted Amplex red (Invitrogen; catalogue number 12222; stock solution 10 mM in DMSO) and 1:10.000 of Hydrogen peroxide (Merck; catalogue number 107209; 30% stock solution) was added and the plates incubated for minutes in the dark.” left out
as §2
According to the method described in Example 3, these 12 antibodies were tested for ability to bind human and rabbit alpha2-Antiplasmin in a dose-dependent manner. Data generated were analyzed using the GraphPadPrism software. The binding activities of the antibodies were calculated as EC50 values. […]

human alpha2-Antiplasmin [8] = biological target: T1, human alpha2-Antiplasmin; assay: cell-based or functional assay; remark: listed apart in the source
human alpha2-Antiplasmin [9] = biological target: T1, human alpha2-Antiplasmin; assay: ELISA, coated antigen, quantified unpurified antibody, 2nd exp.
[10] = biological target: T2, rabbit alpha2-Antiplasmin (rabbit (Oryctolagus cuniculus)); assay: SPR Biacore T200, antibody captured on protein G chip, A2AP as analyte, 25 C
T2 construct: Made in house in HEK293 cells, purified by Ni-IMAC and SEC (a His tag is implied but not described); also called rabbit A2AP; Oryctolagus cuniculus A2AP
T2 chain: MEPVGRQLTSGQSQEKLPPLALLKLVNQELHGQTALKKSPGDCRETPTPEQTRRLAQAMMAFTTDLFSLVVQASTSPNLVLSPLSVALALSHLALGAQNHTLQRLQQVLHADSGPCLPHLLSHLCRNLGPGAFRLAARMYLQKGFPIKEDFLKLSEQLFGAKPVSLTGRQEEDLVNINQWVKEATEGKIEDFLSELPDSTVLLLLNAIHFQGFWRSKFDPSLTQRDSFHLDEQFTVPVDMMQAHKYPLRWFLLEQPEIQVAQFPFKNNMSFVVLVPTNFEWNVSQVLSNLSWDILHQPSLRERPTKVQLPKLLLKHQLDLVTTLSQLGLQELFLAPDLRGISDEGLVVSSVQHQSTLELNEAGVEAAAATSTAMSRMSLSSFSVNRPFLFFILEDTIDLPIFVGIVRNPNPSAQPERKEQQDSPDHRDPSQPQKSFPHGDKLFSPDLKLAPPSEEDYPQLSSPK
Procedure: (§4) Binding assays were performed on a Biacore T200 instrument at 25° C. with a protein G sensor chip and assay buffer HBS-EP+. Antibodies were captured to ˜150 RU and analytes were used at concentrations between 1.56 and 200 nM for full kinetics. As interaction partner, alpha2-Antiplasmin from human, cynomolgus and rabbit was used. Regeneration was performed with glycine-HCl pH 1.5. Kinetic parameters were derived by fitting experimental sensorgrams to a 1:1 Langmuir binding model.

[11] = biological target: T3, cynomolgus alpha2-Antiplasmin (cynomolgus (Macaca fascicularis), UniProt P08697 28-491 (human entry)); assay: as above
T3 construct: Made in house in the same way as the rabbit protein; also called cynomolgus A2AP; Macaca fascicularis A2AP
T3 chain: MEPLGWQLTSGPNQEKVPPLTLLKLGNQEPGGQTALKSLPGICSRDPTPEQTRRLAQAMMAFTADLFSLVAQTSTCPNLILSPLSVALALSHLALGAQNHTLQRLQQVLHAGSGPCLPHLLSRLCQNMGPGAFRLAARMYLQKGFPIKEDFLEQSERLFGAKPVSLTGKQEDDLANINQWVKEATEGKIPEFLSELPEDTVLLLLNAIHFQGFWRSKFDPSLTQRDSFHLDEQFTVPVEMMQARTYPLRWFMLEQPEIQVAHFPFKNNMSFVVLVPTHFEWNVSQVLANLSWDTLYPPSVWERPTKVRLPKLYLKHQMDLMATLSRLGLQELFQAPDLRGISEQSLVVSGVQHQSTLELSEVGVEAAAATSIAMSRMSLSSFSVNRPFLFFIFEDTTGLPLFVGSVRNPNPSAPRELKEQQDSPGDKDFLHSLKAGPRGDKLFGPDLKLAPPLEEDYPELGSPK
Procedure: as §4

human alpha2-Antiplasmin [12] = biological target: T1, human alpha2-Antiplasmin; assay: as above
Procedure: as §4

human alpha2-Antiplasmin [13] = biological target: T1, human alpha2-Antiplasmin; assay: cell-based or functional assay; remark: listed apart in the source
human alpha2-Antiplasmin [14] = biological target: T1, human alpha2-Antiplasmin; assay: ELISA, coated antigen, quantified unpurified antibody, 1st exp.
human alpha2-Antiplasmin [15] = biological target: T1, human alpha2-Antiplasmin; assay: ELISA (Example 3), human alpha2-Antiplasmin coated, RFU; remark: listed apart in the source
Procedure: as §1, with “30 μl/well of this diluted detection antibody was added and plates are incubated for 1 hour at room temperature. Following this incubation step, plates were washed for 3× using 50 μl/well of a PBS+0.05% Tween 20 buffer. As substrate, a mixture of 30 μl/well of 1:1000 diluted Amplex red (Invitrogen; catalogue number 12222; stock solution 10 mM in DMSO) and 1:10.000 of Hydrogen peroxide (Merck; catalogue number 107209; 30% stock solution) was added and the plates incubated for minutes in the dark.” left out
as §2

human alpha2-Antiplasmin [16] = biological target: T1, human alpha2-Antiplasmin; assay: cell-based or functional assay; remark: listed apart in the source
human alpha2-Antiplasmin [17] = biological target: T1, human alpha2-Antiplasmin; assay: cell-based or functional assay; remark: listed apart in the source
human alpha2-Antiplasmin [18] = biological target: T1, human alpha2-Antiplasmin; assay: ELISA, coated antigen, quantified unpurified antibody, 3rd exp.
Procedure: as §1, §2

human alpha2-Antiplasmin [19] = biological target: T1, human alpha2-Antiplasmin; assay: cell-based or functional assay; remark: listed apart in the source

Binder | function blocking activity [IC50 M], 1st exp. (human alpha2-Antiplasmin [1]) | function blocking activity [IC50 M], 2nd exp. (human alpha2-Antiplasmin [1]) | function blocking activity [IC50 M], 3rd exp. (human alpha2-Antiplasmin [1]) | IC50 [M], inhibition of plasmin proteolytic activity (human Plasmin) | EC50 (human alpha2-Antiplasmin [3]) | EC50 (human alpha2-Antiplasmin [4]) | EC50 (human alpha2-Antiplasmin [5]) | EC50 (human alpha2-Antiplasmin [9]) | Kd [10] | Kd [11] | Kd (human alpha2-Antiplasmin [12]) | IC50, A2AP function blocking assay (Example 10) (human alpha2-Antiplasmin [13]) | EC50 (human alpha2-Antiplasmin [14]) | EC50 (read off the curve) (human alpha2-Antiplasmin [15]) | function blocking activity [IC50 M], 1st exp. (human alpha2-Antiplasmin [16]) | function blocking activity [IC50 M], 2nd exp. (human alpha2-Antiplasmin [16]) | other results
B1 | 20 nM | 25 nM | 22 nM | > 1e-05 M | 5.7 nM | 61 nM | 59 nM |  |  |  |  |  |  |  |  |  | EC50 (read off the curve); function blocking assay (Example 4), RFU of plasmin substrate cleavage (human alpha2-Antiplasmin [2]): ~20 nM
B2 | 12 nM | 20 nM | 13 nM | > 5e-06 M | 3.3 nM | 34 nM | 35 nM |  |  |  |  |  |  |  |  |  | EC50 (read off the curve); function blocking assay (Example 4), RFU of plasmin substrate cleavage (human alpha2-Antiplasmin [6]): ~10 nM; EC50 (read off the curve) (human alpha2-Antiplasmin [7]): ~3 nM
B3 |  |  |  | > 1e-05 M |  |  |  | 0.36 nM | 9.7 nM | 5.8 nM | 7.9 nM | 1.2 nM | 0.18 nM | ~0.2 nM | 0.28 nM | 0.39 nM | EC50 (read off the curve); function blocking assay (Example 4), RFU of plasmin substrate cleavage (human alpha2-Antiplasmin [8]): ~0.3 nM; function blocking activity [IC50 M], 3rd exp. (human alpha2-Antiplasmin [16]): 0.3 nM
B4 | 20 nM | 20 nM | 29 nM | > 1e-05 M | 7 nM | 71 nM | 73 nM |  |  |  |  |  |  |  |  |  | EC50 (read off the curve); function blocking assay (Example 4), RFU of plasmin substrate cleavage (human alpha2-Antiplasmin [17]): ~20 nM
B5 |  |  |  | > 1e-05 M |  |  |  | 0.12 nM | 49 nM | 11 nM | 14 nM | 0.14 nM | 0.085 nM | ~0.08 nM | 0.4 nM | 0.5 nM | EC50 (human alpha2-Antiplasmin [18]): 0.11 nM; EC50 (read off the curve); function blocking assay (Example 4), RFU of plasmin substrate cleavage (human alpha2-Antiplasmin [19]): ~0.4 nM
